Patent US20240044920A1 (Alexion, published 2024)
One block for each binder: values may come before it.

Columns and labels:
human ceruloplasmin [1] = target: T1, human ceruloplasmin (human, UniProt P00450 20-1065); test: competition ELISA on coated CP, biotinylated probe; competitor: mAb A
T1 construct: also called CP; purified CP
T1 sequence: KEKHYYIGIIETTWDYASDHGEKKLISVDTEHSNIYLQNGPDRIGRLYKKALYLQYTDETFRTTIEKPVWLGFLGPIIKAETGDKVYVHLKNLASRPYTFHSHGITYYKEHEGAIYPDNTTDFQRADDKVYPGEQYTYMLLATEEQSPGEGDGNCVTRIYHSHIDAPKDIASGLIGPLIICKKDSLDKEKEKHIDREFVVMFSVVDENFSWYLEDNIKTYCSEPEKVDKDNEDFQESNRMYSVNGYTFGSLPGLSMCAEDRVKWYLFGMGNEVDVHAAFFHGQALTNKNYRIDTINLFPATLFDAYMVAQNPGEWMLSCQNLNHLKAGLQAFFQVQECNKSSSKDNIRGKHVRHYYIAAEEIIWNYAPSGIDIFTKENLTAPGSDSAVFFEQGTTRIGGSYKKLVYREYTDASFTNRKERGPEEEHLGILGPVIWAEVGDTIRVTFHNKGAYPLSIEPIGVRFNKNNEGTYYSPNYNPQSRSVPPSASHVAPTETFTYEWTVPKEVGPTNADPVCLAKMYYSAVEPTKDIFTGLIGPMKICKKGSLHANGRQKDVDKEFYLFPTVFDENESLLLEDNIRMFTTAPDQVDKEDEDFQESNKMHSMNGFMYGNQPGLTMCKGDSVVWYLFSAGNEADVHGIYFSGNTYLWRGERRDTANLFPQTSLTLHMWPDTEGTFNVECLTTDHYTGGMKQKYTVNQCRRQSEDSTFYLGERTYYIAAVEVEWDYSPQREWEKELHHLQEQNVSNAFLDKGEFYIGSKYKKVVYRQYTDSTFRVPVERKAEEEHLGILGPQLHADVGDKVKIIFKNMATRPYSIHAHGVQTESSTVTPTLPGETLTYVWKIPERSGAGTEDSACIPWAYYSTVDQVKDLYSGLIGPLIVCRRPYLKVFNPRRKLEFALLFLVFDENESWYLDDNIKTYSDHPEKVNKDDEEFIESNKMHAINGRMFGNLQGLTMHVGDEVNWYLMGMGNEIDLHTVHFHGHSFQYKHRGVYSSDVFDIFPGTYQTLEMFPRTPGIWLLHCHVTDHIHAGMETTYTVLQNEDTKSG
Procedure: (§1) To assess whether any of the 8 anti-CP antibodies competed with each other for binding to CP, the following ELISA study was performed.
(§2) Briefly, CP was coated onto plates at 0.4 ug/mL overnight. Plates were then blocked with 1% BSA for 4 hours, incubated with 10 ug/mL unlabeled blocking antibody for 1 hour, and then, without washing, 50 ng/mL of biotinylated probe antibody for 1 hour. Plates were washed and subsequently incubated with SA-HRP for 30 minutes, followed by another wash. Plates were then incubated with TMB substrate for either 30 minutes or 15 minutes, as noted below, and the reaction was stopped by adding 0.18 M sulfuric acid and read at A450. The experiment was performed on two plates with plate 1 having a TMB incubation time of 30 minutes and plate 2 having a TMB incubation time of 15 minutes. Weaker binders to coated CP were tested on plate 1 and stronger binders on plate 2, with some duplication across plates. Probe Ab/blocking Ab interactions are shown in Table 3, and a summary of the binning results for all 8 anti-CP mAbs and for the 5 mAbs showing the most robust signal on coated CP (as shown in FIG. 6) is provided in Tables 4 and 5.

human ceruloplasmin [2] = target: T1, human ceruloplasmin; test: competition ELISA on coated CP, biotinylated probe; competitor: mAb B
Procedure: as §1, §2

human ceruloplasmin [3] = target: T1, human ceruloplasmin; test: competition ELISA on coated CP, biotinylated probe; competitor: mAb C
Procedure: as §1, §2

human ceruloplasmin [4] = target: T1, human ceruloplasmin; test: competition ELISA on coated CP, biotinylated probe; competitor: mAb D
Procedure: as §1, §2

human ceruloplasmin [5] = target: T1, human ceruloplasmin; test: competition ELISA on coated CP, biotinylated probe; competitor: mAb E
Procedure: as §1, §2

human ceruloplasmin [6] = target: T1, human ceruloplasmin; test: competition ELISA on coated CP, biotinylated probe; competitor: mAb F
Procedure: as §1, §2

human ceruloplasmin [7] = target: T1, human ceruloplasmin; test: competition ELISA on coated CP, biotinylated probe; competitor: mAb G
Procedure: as §1, §2

human ceruloplasmin [8] = target: T1, human ceruloplasmin; test: competition ELISA on coated CP, biotinylated probe; competitor: CP-pAb
Procedure: as §1, §2

human ceruloplasmin [9] = target: T1, human ceruloplasmin; test: capture ELISA: mAb (CM, 50 ng/mL) on anti-rabbit IgG-Fc; 20 ng/mL purified human CP
Procedure: (§3) Ceruloplasmin binding by the 28 recombinant anti-CP mAbs was tested as follows. Clear 96-well plates (Nunc, Maxisorp) were coated and incubated overnight at 4 degrees with 10 ug/mL goat anti-rabbit IgG-Fc (Bethyl Laboratories) in BupH carbonate-bicarbonate buffer (ThermoFisher). The coating solution was discarded, and the plates were blocked with 1% BSA in PBS at room temperature for 2 hours and then the blocking solution was discarded. The 28 anti-CP mAb transient conditioned media were diluted to 50 ng/mL in PBS-T containing 1% BSA and incubated on the blocked plates for 1 hour at room temperature. Negative control wells were incubated with PBS-T containing 1% BSA alone or with transient conditioned medium containing non-CP-specific rabbit mAb at 50 ng/mL.

human ceruloplasmin [10] = target: T1, human ceruloplasmin; test: capture ELISA: mAb (CM, 50 ng/mL) on anti-rabbit IgG-Fc; endogenous CP in Li-heparin human plasma 1:10,000
Procedure: as §3

human ceruloplasmin [11] = target: T1, human ceruloplasmin; test: competition ELISA on coated CP, biotinylated probe; competitor: mAb H
Procedure: as §1, §2

B2: anti-CP mAb B (antibody, V domains shown)
VH: QQQLEESGGGLVKPGGTLTLTCKASGIDFSSYYYMCWVRQAPGKGLEWIACIYVIDDTIYCANWAKGRFTISKTSSTTVTLQMTSLTAADTATYFCARDGSSGIRDYFDLWGPGTLVTVSS
VL: AYDMTQTPASVEVAVGGTVTIKCQASESVSTWLAWYQQKPGQPPKLLIYKASDLASGVPSRFKGSGSGTEFTLTISGVECADAATYYCQQGYTYNNVENVFGGGTEVVVKG
notes: Recombinant full-length rabbit IgG from HEK-293; tested as conditioned medium, Protein A-purified and biotinylated
- probe binding, % of diluent control (human ceruloplasmin [1]): 94%
- probe binding, % of diluent control (human ceruloplasmin [3]): 78%
- probe binding, % of diluent control (human ceruloplasmin [4]): 34%
- probe binding, % of diluent control (human ceruloplasmin [5]): 87%
- probe binding, % of diluent control (human ceruloplasmin [6]): 95%
- probe binding, % of diluent control (human ceruloplasmin [7]): 98%
- probe binding, % of diluent control (human ceruloplasmin [11]): 204%
- probe binding, % of diluent control (human ceruloplasmin [8]): 2%
- A450 (human ceruloplasmin [9]): 1.02 A450
- A450 (human ceruloplasmin [10]): 1.32 A450

B4: anti-CP mAb C (antibody, V domains shown)
VH: QSVEESGGRLVTPGTPLTLTCTASGFSLSRYYMSWVRQAPGKGLEWIGMIYPSSGSTWYASWVKGRFTISATATSVDLKITSPTTEDTATYFCVRDRYPGYNGDSFNLWGQGTLVTVSS
VL: AQVLTQTASPVSAAVGSTVTINCQASQSVYNNNYLAWFQQKPGQPPKRLIYQASKLAIGVPSRFSGSGSGTQFTLTISDVQCDDAATYYCLGSYGCNSVDCNVFGGGTEVVVKG
notes: Recombinant full-length rabbit IgG from HEK-293; also called mAb2
- probe binding, % of diluent control (human ceruloplasmin [1]): 100%
- probe binding, % of diluent control (human ceruloplasmin [2]): 95%
- probe binding, % of diluent control (human ceruloplasmin [4]): 93%
- probe binding, % of diluent control (human ceruloplasmin [5]): 99%
- probe binding, % of diluent control (human ceruloplasmin [6]): 97%
- probe binding, % of diluent control (human ceruloplasmin [7]): 97%
- probe binding, % of diluent control (human ceruloplasmin [11]): 85%
- probe binding, % of diluent control (human ceruloplasmin [8]): 3%
- A450 (human ceruloplasmin [9]): 1.09 A450
- A450 (human ceruloplasmin [10]): 1.27 A450

B5: anti-CP mAb A (antibody, V domains shown)
VH: QSLEESGGDLVKPGASLTLTCKASGFDLSRFYYMCWVRQAPGKGLEWIACIYAGRTGNTYYASWAKGRFTISKTSSTTVTLQMTSLTAADTATYFCARASGDFLAYTYAMDLWGPGTLVTVSS
VL: AAVLTQTPASVSAAVGGTVTISCQASQSVDNNNYLAWYQQKPGQPPKLLIYEASKLASGVPSRFSGSGSGTQFTLTISDVQCDDATTYYCAGGYSSSADANAFGGGTEVVVKG
notes: as for B2
- probe binding, % of diluent control (human ceruloplasmin [2]): 183%
- probe binding, % of diluent control (human ceruloplasmin [3]): 138%
- probe binding, % of diluent control (human ceruloplasmin [4]): 113%
- probe binding, % of diluent control (human ceruloplasmin [5]): 127%
- probe binding, % of diluent control (human ceruloplasmin [6]): -2%
- probe binding, % of diluent control (human ceruloplasmin [7]): 35%
- probe binding, % of diluent control (human ceruloplasmin [11]): 115%
- probe binding, % of diluent control (human ceruloplasmin [8]): 17%
- A450 (human ceruloplasmin [9]): 1.09 A450
- A450 (human ceruloplasmin [10]): 1.4 A450

B6: anti-CP mAb D (antibody, V domains shown)
VH: QEQLVESGGGLVQPEGSLTLTCKASGFDFSSYWMCWVRQAPGKRPEWIACIYGGDGTSYFAGWAKGRFTISKTSSTTVTLQMTSLTAADTATYFCARADYYVYVDGGYGHAYDLWGPGTLVTVSS
VL: DIVMTQTPASVEAAVGGSVTIKCQASDDIYSYLAWYQQKPGQPPKLLIFDASSLPSGVPSRFKGSGSGTQFTLTISGVQCADAATYYCQNYYGSSSSVHAFGGGTEVVVKG
notes: as for B2
- probe binding, % of diluent control (human ceruloplasmin [1]): 107%
- probe binding, % of diluent control (human ceruloplasmin [2]): 98%
- probe binding, % of diluent control (human ceruloplasmin [3]): 72%
- probe binding, % of diluent control (human ceruloplasmin [5]): 98%
- probe binding, % of diluent control (human ceruloplasmin [6]): 100%
- probe binding, % of diluent control (human ceruloplasmin [7]): 100%
- probe binding, % of diluent control (human ceruloplasmin [11]): 9%
- probe binding, % of diluent control (human ceruloplasmin [8]): 10%
- A450 (human ceruloplasmin [9]): 1.03 A450
- A450 (human ceruloplasmin [10]): 1.25 A450

The remaining lines, values ahead:

- probe binding, % of diluent control (human ceruloplasmin [1]): 93%
- probe binding, % of diluent control (human ceruloplasmin [2]): 110%
- probe binding, % of diluent control (human ceruloplasmin [3]): 67%
- probe binding, % of diluent control (human ceruloplasmin [4]): 33%
- probe binding, % of diluent control (human ceruloplasmin [5]): 79%
- probe binding, % of diluent control (human ceruloplasmin [6]): 94%
- probe binding, % of diluent control (human ceruloplasmin [7]): 95%
- probe binding, % of diluent control (human ceruloplasmin [8]): 2%
- A450 (human ceruloplasmin [9]): 0.924 A450
- A450 (human ceruloplasmin [10]): 1.03 A450
B1: anti-CP mAb H (antibody, V domains shown)
VH: QSVEESGGRLVTPGTPLTLTCTVSGFSLSTYAMGWVRQAPGKGLEYIGIIYGGSGTFYASWAKGRFTISKTSTTVDLKITSPTTEDTATYFCARDGDDSYFDYFNLWGQGTLVTVSS
VL: AAVLTQTPASVSAAVGGTVSISCQSNENIGSNLAWYQQKPGQPPKLLIYGASTLTSGVPSRFKGSGSGTAFTLTISGVQCDDAATYYCLGGYLSTSDTTFGGGTAVVVKG
notes: as for B2

- probe binding, % of diluent control (human ceruloplasmin [1]): 91%
- probe binding, % of diluent control (human ceruloplasmin [2]): 93%
- probe binding, % of diluent control (human ceruloplasmin [3]): 108%
- probe binding, % of diluent control (human ceruloplasmin [4]): 103%
- probe binding, % of diluent control (human ceruloplasmin [5]): 102%
- probe binding, % of diluent control (human ceruloplasmin [6]): 84%
- probe binding, % of diluent control (human ceruloplasmin [11]): 106%
- probe binding, % of diluent control (human ceruloplasmin [8]): 6%
- A450 (human ceruloplasmin [9]): 0.987 A450
- A450 (human ceruloplasmin [10]): 1.18 A450
B3: anti-CP mAb G (antibody, V domains shown)
VH: QSLEESGGRLVTPGTLLTLTCTVSGFSLSSNAMSWVRQAPGEGLEWIGTISSRGSTYYANWAKGRFTISKTSTTVDLKITSPTTEDTATYFCARSSLAGYEPYYFKLWGQGTLVTVSS
VL: DVVMTQTASPVSAAVGGTVTIKCQASESISSYLAWYQQKPGQPPKLLIYGASDLASGVPSRFKGSGSGTEFTLTISDLECADAATYYCQSYYGLSRNGYGNVFGGGTEVVVKG
notes: Recombinant full-length rabbit IgG from HEK-293; also called mAb3
